The target in this experiment is T1, GFP-BC2-tag (Homo sapiens (beta-catenin-derived …, UniProt P35222)).
T1 construct: also called BC2 peptide
T1 chain: PDRKAAVSHWQQ
The experiment in a line: SPR; Biacore 8k; antigen (lysozyme or GFP-BC2-tag) amine-coupled to a CM5 chip, single-domain antibody flowed over at 30 µL/min; running buffer 137 mM NaCl, 2.7 mM KCl, 10 mM Na2HPO4, 1.8 mM KH2PO4 pH 7.5, room temperature; 1:1 Langmuir model. The note with it: both partners purified. A general note: In SPR one partner is held on a chip, and binding of the other changes the refractive index at the surface.

The record followed here is publication PMC11432006, “Functional Divergence in the Affinity and Stability of Non-Canonical Cysteines and Non-Canonical Disulfide Bonds: Insights from a VHH and VNAR Study” (International Journal of Molecular Sciences, 2024).

B1: BC2-Nb_(C55A_C110S) (VHH)
VHH: QVQLVESGGGLVQPGGSLTLSCTASGFTLDHYDIGWFRQAPGKEREGVSAINNSDDDTYYADSVKGRFTIFMNNAKDTVYLQMNSLKPEDTAIYYCAEARGSKRGRYEYDFWGQGTQVTVSS
notes: also called BC2-Nb mutant
Regarding B1, the binding result is on record as “no binding (tested: 5000 nM)”.
